From PMC3570535 come the findings set out here.

In this data set the test system is His-DLA2 (RBP63, Cr-E2) (Chlamydomonas reinhardtii). The experiment in a line: filter binding. The following applies: 5 mM Mg2+; 6.7 pM RNA; 20 mM HEPES/KOH pH 7.8, 5 mM MgCl2, 60 mM KCl, RT; 5 min (UV cross-linking, 254 nm, 1 J/cm2) or 15 min (filter binding); native fractions dialyzed to 30 mM ….

With psbA 5' UTR RNA, the dissociation constant Kd – broadly, a measure of binding affinity in units of concentration – came to 51 nM.
